Measurements from paper PMC4288179, “Synergic interplay of the La motif, RRM1 and the interdomain linker of LARP6 in the recognition of collagen mRNA expands the RNA binding repertoire of the La module”.
Positions count from the first letter of the chain named.

Assays:
Assay in all cases: ITC; ITC: 20 mM Tris pH 7.25, 100 mM KCl, 5 mM MgCl2, 1 mM DTT, 298 K; protein titrated into RNA
Details in all cases: protein: recombinant; tags: N-terminal His6 (TEV-cleavable); stem-loop with internal bulge
[1] = molecular target: T1, RRM1 chimera (Homo sapiens, UniProt Q9BRS8 70-179+P05455:111-202, internal_change)
T1 sequence: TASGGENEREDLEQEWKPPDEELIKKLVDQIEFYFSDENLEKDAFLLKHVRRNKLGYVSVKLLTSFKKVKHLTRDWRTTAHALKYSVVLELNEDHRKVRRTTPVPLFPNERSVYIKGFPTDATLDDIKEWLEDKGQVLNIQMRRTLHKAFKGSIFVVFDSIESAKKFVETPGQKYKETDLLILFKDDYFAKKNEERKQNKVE

[2] = molecular target: T2, HsLARP6(70-300) K196A (Homo sapiens, UniProt Q9BRS8 70-300, K196A)
T2 sequence: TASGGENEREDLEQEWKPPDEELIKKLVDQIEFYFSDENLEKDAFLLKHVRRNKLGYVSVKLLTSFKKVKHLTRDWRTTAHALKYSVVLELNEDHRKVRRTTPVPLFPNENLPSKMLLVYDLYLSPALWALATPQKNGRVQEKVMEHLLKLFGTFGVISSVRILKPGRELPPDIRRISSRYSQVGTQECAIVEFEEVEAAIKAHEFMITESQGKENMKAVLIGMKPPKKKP

[3] = molecular target: T3, HsLARP6(70-300) Y103A (Homo sapiens, UniProt Q9BRS8 70-300, Y103A)
T3 sequence: T2 sequence with Y34A, A127K

[4] = molecular target: T4, HsLARP6(74-313) (Homo sapiens, UniProt Q9BRS8 74-313)
T4 sequence: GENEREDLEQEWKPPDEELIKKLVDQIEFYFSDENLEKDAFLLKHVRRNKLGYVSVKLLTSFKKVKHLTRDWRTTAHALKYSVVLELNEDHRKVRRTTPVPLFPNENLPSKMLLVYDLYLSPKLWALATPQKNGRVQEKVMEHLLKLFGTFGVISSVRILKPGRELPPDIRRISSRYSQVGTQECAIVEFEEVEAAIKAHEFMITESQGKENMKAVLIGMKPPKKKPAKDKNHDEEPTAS

[5] = molecular target: T5, HsLARP6(70-300) E262A (Homo sapiens, UniProt Q9BRS8 70-300, E262A)
T5 sequence: T2 sequence with A127K, E193A

[6] = molecular target: T6, HsLARP6(70-300) F114A (Homo sapiens, UniProt Q9BRS8 70-300, F114A)
T6 sequence: T2 sequence with F45A, A127K

[7] = molecular target: T7, Loop1 chimera (Homo sapiens, UniProt Q9BRS8 70-189+P05455:116-122+209-300, internal_change)
T7 sequence: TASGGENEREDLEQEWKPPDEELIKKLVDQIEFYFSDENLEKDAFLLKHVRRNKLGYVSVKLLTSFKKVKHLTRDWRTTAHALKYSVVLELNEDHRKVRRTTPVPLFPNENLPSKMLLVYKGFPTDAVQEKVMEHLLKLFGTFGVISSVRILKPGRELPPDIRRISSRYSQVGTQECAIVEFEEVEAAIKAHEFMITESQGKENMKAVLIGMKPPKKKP

[8] = molecular target: T8, HsLARP6(70-300) R231A (Homo sapiens, UniProt Q9BRS8 70-300, R231A)
T8 sequence: T2 sequence with A127K, R162A

B1: 48 nt RNA (collagen alpha1(I) 5' UTR SL) (structured_RNA)
RNA: CCACAAAGAGUCUACAUGUCUAGGGUCUAGACAUGUUCAGCUUUGUGG
- binding result [1]: no binding
- Kd [2]: 48 nM
- binding result [3]: no binding
- Kd [4]: 26 nM
- Kd [5]: 5.3 nM
- binding result [6]: no binding
- Kd [7]: 18 nM
- Kd [8]: 20 nM
